Measurements reported in article PMC9162458, “Divergent binding mode for a protozoan BRC repeat to RAD51” (Biochemical Journal, 2022).
Ends that are not written are not given here.

Biological target: T1, LiRAD51^ATPase (Leishmania infantum RAD51 ATPase domain, residues 134–386) (Leishmania infantum)
T1 construct: RAD51 of Leishmania infantum, ATPase domain, residues 134-386; Vector pHAT2 (Addgene #112583); No removal of the His-tag is described; also called monomeric LiRAD51^ATPase; LiRAD51 ATPase domain; source: E. coli (T7Express or BL21(DE3)); purified (Ni-NTA, Superdex 75 SEC) for FP and ITC; in lysate for the pull-down
Experiment: fluorescence polarisation; competition: 5 nM Fluor-NCys-LiBRC1 probe with 500 nM LiRAD51^ATPase, GB1-LiBRC repeats in serial dilutions; KD estimated from the fitted IC50; 50 mM Tris pH 8.0, 150 mM NaCl, 100 mM Li2SO4, 1% BSA, 0.1% Tween-20
Details: both partners purified

Binder	Kd
LVPTLFSTASGKPVTVRRESLQKVAERLGDLAAPDME (domain or fragment, not fully specified (N-terminus); also: GB1 fusion) [LiBRC1.2 (LiBRC1 with extended termini, GB1 fusion)]	190 nM
GB1-RVPTLFETGRGKAVTVQKRSLDKAEASMDSLEA-His8 (domain or fragment) [GB1-LiBRC2-His8 (BRC repeat 2 of Leishmania infantum BRCA2 fused to GB1)]	13600 nM
AAAPPLVPTLFSTASGKPVTVRRESLQKVAERLGDLAA (domain or fragment, not fully specified (N-terminus); also: GB1 fusion) [LiBRC1.3 (LiBRC1 with extended termini, GB1 fusion)]	310 nM
